The values that follow come from patent publication US20200148732A1 (UNIVERSITY OF COPENHAGEN, published 2020).

Experiment [1] addresses T1, GFP-TONSL wild type (full length) (Homo sapiens, UniProt Q96HA7 1-1378).
T1 construct: Expressed in U-2-OS or HeLa S3 cells; assayed in cell extracts; also called GFP-TONSL WT; TONSL WT / GFP; not shown: N-terminal GFP tag
T1 sequence: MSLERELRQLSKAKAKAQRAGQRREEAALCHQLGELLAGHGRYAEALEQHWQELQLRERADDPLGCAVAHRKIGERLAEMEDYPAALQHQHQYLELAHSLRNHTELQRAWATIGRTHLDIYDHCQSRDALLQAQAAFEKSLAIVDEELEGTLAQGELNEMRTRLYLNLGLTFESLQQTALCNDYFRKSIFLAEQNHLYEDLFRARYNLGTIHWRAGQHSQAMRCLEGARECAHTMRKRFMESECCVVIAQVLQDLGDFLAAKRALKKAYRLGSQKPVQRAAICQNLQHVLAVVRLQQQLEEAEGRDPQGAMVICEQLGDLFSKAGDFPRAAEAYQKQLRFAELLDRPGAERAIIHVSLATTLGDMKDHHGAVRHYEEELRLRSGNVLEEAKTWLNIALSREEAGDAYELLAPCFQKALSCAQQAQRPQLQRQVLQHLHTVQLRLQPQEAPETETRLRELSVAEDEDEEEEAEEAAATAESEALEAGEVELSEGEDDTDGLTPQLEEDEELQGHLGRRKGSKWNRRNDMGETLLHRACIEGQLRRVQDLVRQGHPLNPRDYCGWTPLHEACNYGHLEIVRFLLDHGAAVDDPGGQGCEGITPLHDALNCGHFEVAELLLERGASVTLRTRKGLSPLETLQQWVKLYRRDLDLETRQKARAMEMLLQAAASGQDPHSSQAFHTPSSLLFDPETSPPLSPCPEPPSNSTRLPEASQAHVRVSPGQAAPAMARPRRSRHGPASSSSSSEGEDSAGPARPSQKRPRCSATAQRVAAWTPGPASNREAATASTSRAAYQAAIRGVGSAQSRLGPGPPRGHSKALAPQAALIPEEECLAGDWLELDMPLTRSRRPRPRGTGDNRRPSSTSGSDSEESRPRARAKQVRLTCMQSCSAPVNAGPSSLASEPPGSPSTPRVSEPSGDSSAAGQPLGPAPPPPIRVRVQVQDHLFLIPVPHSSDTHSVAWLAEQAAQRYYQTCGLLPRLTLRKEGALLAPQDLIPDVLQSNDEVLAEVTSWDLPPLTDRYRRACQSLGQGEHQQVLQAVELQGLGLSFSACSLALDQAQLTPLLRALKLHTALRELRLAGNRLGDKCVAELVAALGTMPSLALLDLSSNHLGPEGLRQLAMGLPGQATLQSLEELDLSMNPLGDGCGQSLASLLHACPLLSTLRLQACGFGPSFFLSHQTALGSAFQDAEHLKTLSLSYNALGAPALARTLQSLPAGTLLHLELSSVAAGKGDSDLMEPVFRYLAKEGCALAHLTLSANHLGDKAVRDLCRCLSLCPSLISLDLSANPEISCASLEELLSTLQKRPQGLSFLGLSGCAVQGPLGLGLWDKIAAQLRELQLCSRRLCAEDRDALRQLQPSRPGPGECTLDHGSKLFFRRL
Put plainly: GFP immunoprecipitation of GFP-TONSL from transfected HeLa S3 cells, western blot (co-IP; association may be indirect).

The target in a further experiment is T2, GFP-TONSL E530A (Homo sapiens, UniProt Q96HA7 1-1378).
T2 construct: also called TONSL E530A / GFP; not shown: N-terminal GFP tag
T2 sequence: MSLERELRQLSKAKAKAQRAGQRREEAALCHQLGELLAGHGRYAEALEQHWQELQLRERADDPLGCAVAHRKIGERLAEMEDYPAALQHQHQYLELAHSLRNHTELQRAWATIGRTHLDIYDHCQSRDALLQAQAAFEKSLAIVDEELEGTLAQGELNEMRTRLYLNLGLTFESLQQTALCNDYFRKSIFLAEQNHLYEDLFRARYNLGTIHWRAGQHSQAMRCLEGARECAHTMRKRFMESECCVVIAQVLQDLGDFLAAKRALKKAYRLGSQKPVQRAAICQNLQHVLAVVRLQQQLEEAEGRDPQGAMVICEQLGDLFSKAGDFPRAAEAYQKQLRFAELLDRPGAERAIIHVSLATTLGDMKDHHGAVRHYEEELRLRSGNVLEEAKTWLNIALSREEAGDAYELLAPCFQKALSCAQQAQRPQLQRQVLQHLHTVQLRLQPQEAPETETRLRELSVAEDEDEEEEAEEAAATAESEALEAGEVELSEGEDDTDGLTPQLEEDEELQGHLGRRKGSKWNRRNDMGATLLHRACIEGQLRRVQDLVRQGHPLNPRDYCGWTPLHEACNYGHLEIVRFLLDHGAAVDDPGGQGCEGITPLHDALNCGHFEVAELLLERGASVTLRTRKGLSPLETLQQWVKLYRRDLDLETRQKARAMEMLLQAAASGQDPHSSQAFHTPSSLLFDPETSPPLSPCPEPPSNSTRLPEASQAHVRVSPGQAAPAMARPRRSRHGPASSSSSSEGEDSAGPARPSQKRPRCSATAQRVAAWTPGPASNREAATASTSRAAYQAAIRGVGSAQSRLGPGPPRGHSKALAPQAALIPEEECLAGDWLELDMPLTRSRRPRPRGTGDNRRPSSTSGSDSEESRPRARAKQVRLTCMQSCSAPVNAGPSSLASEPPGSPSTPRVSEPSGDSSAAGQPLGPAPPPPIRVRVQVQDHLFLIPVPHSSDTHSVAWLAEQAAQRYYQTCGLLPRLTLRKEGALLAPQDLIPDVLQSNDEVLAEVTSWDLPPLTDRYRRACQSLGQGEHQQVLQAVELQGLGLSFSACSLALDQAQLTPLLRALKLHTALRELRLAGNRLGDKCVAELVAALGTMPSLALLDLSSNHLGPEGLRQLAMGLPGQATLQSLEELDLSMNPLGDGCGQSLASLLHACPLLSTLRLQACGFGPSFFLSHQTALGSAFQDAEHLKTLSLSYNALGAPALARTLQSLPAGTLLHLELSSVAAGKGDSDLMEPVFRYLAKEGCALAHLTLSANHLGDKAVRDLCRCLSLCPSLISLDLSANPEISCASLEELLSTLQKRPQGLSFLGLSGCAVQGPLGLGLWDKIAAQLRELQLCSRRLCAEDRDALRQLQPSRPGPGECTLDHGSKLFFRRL
The description is as above.

B1: MMS22L (endogenous, in cell extracts) (other, UniProt Q6ZRQ5 1-1243, looked up)
chain: MENCSAASTFLTDSLELELGTEWCKPPYFSCAVDNRGGGKHFSGESYLCSGALKRLILNLDPLPTNFEEDTLEIFGIQWVTETALVNSSRELFHLFRQQLYNLETLLQSSCDFGKVSTLHCKADNIRQQCVLFLHYVKVFIFRYLKVQNAESHVPVHPYEALEAQLPSVLIDELHGLLLYIGHLSELPSVNIGAFVNQNQIKLFPPSWHLLHLHLDIHWLVLEILYMLGEKLKQVVYGHQFMNLASDNLTNISLFEEHCETLLCDLISLSLNRYDKVRSSESLMSDQCPCLCIKELWVLLIHLLDHRSKWFVSESFWNWLNKLLKTLLEKSSDRRRSSMPVIQSRDPLGFSWWIITHVASFYKFDRHGVPDEMRKVESNWNFVEELLKKSISVQGVILEEQLRMYLHCCLTLCDFWEPNIAIVTILWEYYSKNLNSSFSISWLPFKGLANTMKSPLSMLEMVKTCCCDKQDQELYKSSSSYTIFLCILAKVVKKAMKSNGPHPWKQVKGRIYSKFHQKRMEELTEVGLQNFFSLFLLLAAVAEVEDVASHVLDLLNFLKPAFVTSQRALIWKGHMAFLLMYAQKNLDIGVLAEKFSCAFREKAKEFLVSKNEEMVQRQTIWTLLSIYIDGVQEVFETSYCLYPSHEKLLNDGFSMLLRACRESELRTVLSFLQAVLARIRSMHQQLCQELQRDNVDLFVQSSLSAKERHLAAVASALWRHFFSFLKSQRMSQVVPFSQLADAAADFTLLAMDMPSTAPSDFQPQPVISIIQLFGWDDIICPQVVARYLSHVLQNSTLCEALSHSGYVSFQALTVRSWIRCVLQMYIKNLSGPDDLLIDKNLEEAVEKEYMKQLVKLTRLLFNLSEVKSIFSKAQVEYLSISEDPKKALVRFFEAVGVTYGNVQTLSDKSAMVTKSLEYLGEVLKYIKPYLGKKVFSAGLQLTYGMMGILVKSWAQIFATSKAQKLLFRIIDCLLLPHAVLQQEKELPAPMLSAIQKSLPLYLQGMCIVCCQSQNPNAYLNQLLGNVIEQYIGRFLPASPYVSDLGQHPVLLALRNTATIPPISSLKKCIVQVIRKSYLEYKGSSPPPRLASILAFILQLFKETNTDIYEVELLLPGILKCLVLVSEPQVKRLATENLQYMVKACQVGSEEEPSSQLTSVFRQFIQDYGMRYYYQVYSILETVATLDQQVVIHLISTLTQSLKDSEQKWGLGRNIAQREAYSKLLSHLGQMGQDEMQRLENDNT
B1: the binding result (in experiment [1]; in the experiment with GFP-TONSL E530A) was “binds” in each case.
